IntAct's records for PubMed 14517550

B1: Caspase Dronc (Drosophila melanogaster (Fruit fly)), Q9XYF4 (parent)
chain: MQPPELEIGMPKRHREHIRKNLNILVEWTNYERLAMECVQQGILTVQMLRNTQDLNGKPFNMDEKDVRVEQHRRLLLKITQRGPTAYNLLINALRNINCLDAAVLLESVDESDSRPPFISLNERRTSRKSADIVDTPSPEASEGPCVSKLRNEPLGALTPYVGVVDGPEVKKSKKIHGGDSAILGTYKMQSRFNRGVLLMVNIMDYPDQNRRRIGAEKDSKSLIHLFQELNFTIFPYGNVNQDQFFKLLTMVTSSSYVQNTECFVMVLMTHGNSVEGKEKVEFCDGSVVDMQKIKDHFQTAKCPYLVNKPKVLMFPFCRGDEYDLGHPKNQGNLMEPVYTAQEEKWPDTQTEGIPSPSTNVPSLADTLVCYANTPGYVTHRDLDTGSWYIQKFCQVMADHAHDTDLEDILKKTSEAVGNKRTKKGSMQTGAYDNLGFNKKLYFNPGFFNE
partner: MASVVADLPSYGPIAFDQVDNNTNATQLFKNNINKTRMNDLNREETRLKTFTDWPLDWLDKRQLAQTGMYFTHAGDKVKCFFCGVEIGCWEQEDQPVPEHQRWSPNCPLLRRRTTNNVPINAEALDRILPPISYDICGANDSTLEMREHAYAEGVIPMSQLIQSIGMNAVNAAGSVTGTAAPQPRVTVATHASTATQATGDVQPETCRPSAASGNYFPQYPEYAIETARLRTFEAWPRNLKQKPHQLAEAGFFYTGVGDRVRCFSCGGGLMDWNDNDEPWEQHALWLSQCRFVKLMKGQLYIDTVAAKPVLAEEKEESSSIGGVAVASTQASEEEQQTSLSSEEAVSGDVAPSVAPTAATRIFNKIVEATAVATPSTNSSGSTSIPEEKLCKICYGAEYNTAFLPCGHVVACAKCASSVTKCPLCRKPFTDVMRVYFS

Variants of: B1
Conditions: with diap1_drome Diap1, Q24306

effect of a mutation on the interaction | Variant
decreasing interaction | F118E
